Assay: label from the status in PepcDB records
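Note: failed if final PepcDB status was selected cloned or expressed and not failed if soluble or beyond.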

Sequence: MNTSYSQSTLRHNQVLIWLCVLSFFSVLNEMVLNVSLPDIANEFNKLPASANWVNTAFMLTFSIGTALYGKLSDQLGIKNLLLFGIMVNGLGSIIGFVGHSFFPILILARFIQGIGAAAFPALVMVVVARYIPKENRGKAFGLIGSLVAMGEGVGPAIGGMVAHYIHWSYLLLIPTATIITVPFLIKLLKKEERIRGHIDMAGIILMSAGIVFFMLFTTSYRFSFLIISILAFFIFVQHIRKAQDPFVDPELGKNVFFVIGTLCGGLIFGTVAGFVSMVPYMMKDVHHLSTAAIGSGIIFPGTMSVIIFGYIGGLLVDRKGSLYVLTIGSALLSSGFLIAAFFIDAAPWIMTIIVIFVFGGLSFTKTVISTVVSSSLKEKEAGAGMSLLNFTSFLSEGTGIAIVGGLLSIGFLDHRLLPIDVDHSTYLYSNMLILFAGIIVICWLVILNVYKRSRRHG
- protein production: not failed

Sequence: MNTTVEKQQIITSNTEQWKMYSKLEGKEYQIHISKPKQPAPDSGYPVIYVLDGNAFFQTFHEAVKIQSVRAEKTGVSPAIIVGVGYPIEGAFSGEERCYDFTPSVISKDAPLKPDGKPWPKTGGAHNFFTFIEEELKPQIEKNFEIDKGKQTLFGHSLGGLFALHILFTNLNAFQNYFISSPSIWWNNKSVLEKEENLIIELNNAKFETGVFLTVGSLEREHMVVGANELSERLLQVNHDKLKFKFYEAEGENHASVVPTSLSKGLRFISYV
- protein production: not failed

Sequence: MNVDILKQRAKAFDYVFDAIVVTDLQGFIIDWNKGSETLYGYSKEQAIGQPVNMLHVPGDTEHITSEVISAVENQGKWTGEIRMLHKDGHIGWIESMCVPIYGENYQMVGALGINRDITKRKKELEHHHHHH
- protein production: not failed

Sequence: MNVRHISYFNQWHGALVTNMLAGVLLALALLPGAIAFSFIAGVSPTIGMLSTGLMMLVISLTGNRTLMVSAPSSGVSLVVAPLMSSHGMPAVILATLIMGIIQILMGICRINKLLDYIPTGVVIGFMNALGVLLFTSQLKNILNISNATYVIAVASFLIIWLAQRYIRFMPAPLIAIIILTICAWWLKPDIVYVHHLASLHIHVPMLSFPDAMYDMHIVGISSMYGVTMAIVAVVQTTLTARMMDAVTATKSDKNKETIGQGVANTIVALFGGYGGSALVGQSRFNATMGATSRVSTLITGAFLLISLFVFGDIIGQIPMAVLATVLITISLNTFDRRTISFIKVSPIKHGAIVVLTMLIILSTNNLAAGVVLVSLLYYLIQGFNKRKGRDI
- protein production: failed

Sequence: MNVRKFPFAMRAGVAGMLALAALLAGCGSLSGSEMSRRTDADIEVARQRQADEKAELTSPGTYLSLIRRMQEQGMYYASLAHIDAYVQRFGRTPDVLLLRADALRETDQPAAAEADYRAVVEATSALGAGTQGALLNANAWRGLGITAGRQGRFAEAVRRLQLAARGNPTDASTESDLGYALMRAGEVEQARVPLMQAAQLDAANPKIAGNLAIWLDVNDRKEAAAALTAHARLSEAARKAIDEDAARVRSAWRDRRVARDTAPQPVQRAVVANPALMPAAAAPRSSAPLAFQRGRLLDNLEAAQ
- protein production: failed

Sequence: MNVSNGDLIVEKIVANRKYHALKRQRNVLSWLLTLLMLVVYFGFIGLIAFNKAFLAVPLASGVTTRGIPIAIGVMLFAIIVTAVYVFFSNIVYDKLSRNILEDACK
- protein production: failed

Sequence: MNVVIVRYGEIGTKSRQTRSWFEKILMNNIREALVTEEVPYKEIFSRHGRIIVKTNSPKEAANVLVRVFGIVSISPAMEVEASLEKINRTALLMFRKKAKEVGKERPKFRVTARRITKEFPLDSLEIQAKVGEYILNNENCEVDLKNYDIEIGIEIMQGKAYIYTEKIKGWGGLPIGTEGRMIGILHDELSALAIFLMMKRGVEVIPVYIGKDDKNLEKVRSLWNLLKRYSYGSKGFLVVAESFDRVLKLIRDFGVKGVIKGLRPNDLNSEVSEITEDFKMFPVPVYYPLIALPEEYIKSVKERLGL
- protein production: not failed

Sequence: MNVVRSSAYTGVATLAKLLAALVVVKLVAVYAGPQGVGRLGQFLNLMSVLAVLAGGGISAGIVKYVAQYRDDAPALARLLSAALWYAFCAACAMALLAMAFSGAIAERLLGDASYRPLMCVLAIAQLGIALLNYMLAVINGFMDVRRLAFVQVSGAVLSVALVAWLSGRAQLHGALLALVLSQVLWLLAAVPALRRSSYFQPAMWRMRFDAEMTRQLAAFSVMTLTSTLVPQLVAILVRDHLALQFGWEQVGYWQAVSRVSDAYLLFFTTAINVYYLPKLASLRGAVALGQELRGAYRYVMPAVIVMALGVYVCRDWVTLLLFDAQFAAAAPLYGPQLLGDVVKIAAFVLSYVMLAKAMTRLLVISECIFAASYLALVYLFTAQFGLIGAMYAFAANYVLYLLFNIVVVRRYLRRTA
- protein production: failed

Sequence: MNVVVTGGRGSSGRWIVDRLVGPHDVTVLDRRLPDDEGHPAVEYQALDLTDAGGVFDTLTAIDPDAVVHWAAIPVAGNHPGVDLFQNNTLAAHNVLSAAGRVGADVVQGSSDGAYGFFFAEETPVPDELPITEKHARRPEDDYGLSKVVTEEIGKTIARRDGISVASIRPSWIQIPGEYPCRSEDYVDDLAAGAGNYWSYVDVRDVADLVEAALTADVAGHETFNCVGPDNALGRPLVELMRDHYGRVPDDCTVEGDAAAYSTAKATERLGWEPTRSWREAADVDVDVPTV
- protein production: failed

Sequence: MNWPNMPPGDRRWLWIGLTLPLCLLNGWVLLQILDYFQSPLRIFIIANLVAFILGYPVRWLQRYPRLKLPYAVALVLLTTAIILAVIGLLVIPKLVDQIRTVLQLLPHLNALGDRHLESLDNLSNQWEIPTNFRAWGRELSNEFPNQIRSITNQLINLLIWTAGSLVEAGFIFIMTVYLLLRGQTFWDGIFRWLPIDWRHKVRQRLRHSFQNYYIGQATVAALLGVSLIISLSIFQVPLALLFGMFVGFMAFFPFGGGTSIVLISIIASFQSIWLGIKVLAIATVVDQVVENGLAPKLLGRVTGVHPVWILLSLMIGAKVAGLLGILVAIPIASFIRDMLNDFI
- protein production: failed

Sequence: MNWVAPIKDQETLKNFGETLKQVDYKYYIMFELGVGTGLQLQDILAFKNKDVTGKKEIEVTIGTRNMKNVFTVPEELQQIINEYTKGKDPEAYLILGHSSSNKPVSREQAYRVLRSAGHKIGLNSIGAQTMRKTYAWNYYKETGDIYHLQKLFNHASPSITYRFIGEKPNIEVFLKKMTPQENERSRYLLYLNDNGKKKLNKIIDILTGIRDNFDSPANNDAFYGKVDCLLQELEALMENYENTK
- protein production: failed

Sequence: MNYFIVEVSEQEVKREKEKARELRRSQWWKNRIARGICHYCGEIFPPEELTMDHLVPVVRGGKSTRGNVVPACKECNNRKKYLLPVEWEEYLDSLESEPSDGEGLEHHHHHH
- protein production: not failed

Sequence: MNYLVLLIPVLFSFHQIFVRLGSREAETISGIYVSLLASTIIFIPSVANPTLDGMFLLYMSLAGVLHFFVARICFYHAISRIGANLSAPLSATRVFFAALLGIFVGEYLTLRVVVMSLLIFAGIVLISRPKGKADAFGVTLGILTGLFSALSSYFVKFGNAVDYNPLFAIFLGFALSTILMTPLAVRKDLSHTKFYLAAGVTVGIAHLLRYVVLKDVPVTVVEPITSSYPLFTLLLSAIFLREGEIFTLRSITGTLLILGGIYVYYA
- protein production: failed

Sequence: MPADIIIHNGSLITFDEARPQAQALAIQGGMIAAVGSDAEILALAGPETRLIDAGGGTVLPGFIDSHVHLFGGSVELDCLSLYGVKGLDAMRAAIQPYAQANPDDALVFCVMADYDILGTGHTLTRHDLDSILADRPLAMFAPDHHTVWANTAALEATGLLQGGEVDAGSLIVLGEDGLANGELLEPGAYGPILGLTRHGGREMLGLTTGKDPEPPATPDQRARDKDVIARGLAHCAAQGITGLHLMDGNRYQLELLTELEAEGRLLCRCEVPFHMKGTDPVERMTAEAPAMRAAYRGDKVRCNHLKMFIDGVIESGTALMLRPYPGELGANDNTGDEVFTQEHFTACCVEADRLGFQIAVHAIGDAGVRRTIDAFEAARRANGTRDSRHRIEHIEVIHPDDIPRLAELDIVASLQPGHAPRGHVFPPGAVGQYLHPDQIVGAYAWQTIRETGARVVFSTDWPVIPVDVMPSLRAAIAPLDLGPDWPDQSQSLMDTLASYTRDNAWVEFNEDSKGRLKVGMAADIAVLSHDLTALAPDDITQAAAMVTIMDGAVTYQRPG
- protein production: failed

Sequence: MPAERDSSAAWAVCVYCASGPQHPELLGVAAELGEAIAERGWTLVWGGGRVSAMGAVASAARARGGRTVGVIPTVLMRREIADADADELIVSDTLHERKQIMEDRADAFIALPGGIGTLDEVLDAWTTGFLGLHAKPIVLLDPIGHYEGLWLWLSGLLDSGYITQAAMDRVVLVDKVGAALEACAPG
- protein production: failed

Sequence: MPAHSLSLYQYYRPPLDWQAQLAFYRLRAVAGMEWFSNTDNDCLEKIAQDKQALEYGRTLQIDDIRAVVHIIHEAHLHRFKLTLTFTPDSPIAGLQKLITQVRRILDLDADMQQIEHNLQRLTDLKLIPKSGLRIPGAGSLEHHHHHH
- protein production: failed

Sequence: MPASPEESAMTPWTPIARLEEIPRQGARVVATPEGAIAVFRTLDDRVFALLDRCPHKGGPLSQGIVHGARVACPLHNWVIELDSGQAVAPDEGCVRRFETRLEDGMVAIALPDSLVGTLEHHHHHH
- protein production: not failed

Sequence: MPCTAKVLELRPSVDALLRQHVRTLQGTGRGQCSKSFVPAIRQELVMIALFQGLGLLLQDNALHRLPFDEQVAHWRDKTDAQLDEELSLLKVAKKQWVIASIIGWQAISLILLGVITHQLWQNDYHLTFSRVVIIFTSWASILFVMWYIADLFDHSAGFERWLRAFNSRARVTPDADSVECVADALDMTRRYPEVLRYKQEVTSKRELRHEDIVNMREMGRLRRYTELLRDLDRFDGAPRLVANA
- protein production: failed

Sequence: MPDGDFITLDRVEKVFDVRRKTGFLRSERRRVRAVDSLSFTVARGEMVGYIGPNGAGKSTTIKMLTGILTPSGGRLRVAGIDPSRERTRLAARIGVVFGQRTTLWWDLPLIDSYRLMHRMYRIPDGRYRENLDRCVELLELGDLLDVPVRQLSLGQRMRGDIAAALLHDPEVLYLDEPTIGLDVISKARVREFLRELNAERGTTVLLTTHDLQDIEQLCGRVMVIDHGRLMYDGPLAGLHEVGDSERTLVVDLARELPPIEAAPARVVKVEGPRQWLAFPASESAAPLVARIAAAYPLVDLSVREPDIEAVIAKMLQSMGDTPQPPPEQAEHVVSLEHHHHHH
- protein production: not failed

Sequence: MPDKFKRVHVIVMDSVGIGEAPDAAKFGDFDVDTFGHIAKHVGGLKMPEMGKLGLSNIREIEGIEKAEKPLAYYTKMQEASNGKDTMTGHWEIMG
- protein production: failed

Sequence: MPDNFLIVPSADVQGGRLTTLSNAISTTDLNLTVTGLSNDTELVVYQLSTGVIGTPQAAAQPRETHVFALMGQSNMIGRAAFDGGAKWPDGTLQIGRGGDEDGAIIPARNPADGPATSRPLAHTGARLGNMGLDIQFAIDYLSDKPDVTLLFIPCAQGATGFSNGAWNPGDWLYNRETARINAAMNANPEFLFQGFLWHQGETDTGIPGTYGGLLDNLIAGLRRDVTAATPTTPFILGGLAAGNAGRDAITGIIAATPGRVPYTAFAPTADLSLTDANHFDAASFRTLGARYAAALASAAANQPGAPGIPTGLSAVAGDTEVTLSWSAPANTGGTALSDYIIERDSGSGFAALADGTGTTTGYTDSGLSNGTTYAYRVRAVNGTGTGAATPPQSATPAAPATGPVAEAGAQAHWLFGADNPTYADLVSGRIATGPAHALEAAYMTSPAGIRQGRDTGIAEADAQTMCFVFQLAGSANSMIGGTLTTSGSNGVSPYTSATTGIYANMRGGWGNPAISSASPYRTQFVFAAVSKNVATGNYVLFAGNGAGHDVLTGTSAQTTSPRTIGIGNLHFDRANFSGQISIAEAILFDSAKTEIELTEIYDRSRTRLAARGLTVV
- protein production: failed

Sequence: MPDPIFSVSDARRSGTRLIGFGIGAIVVILATAATFLLLTLPDANAFNARVERVFIENDLTTQAEIRLLEILAQSGTAFADTLSSYRMVIFVLLVFASAMMIAALAFLVMLVLLNRRMAQIERTGIQVTSLLISREENTVYLNNMEFQLTPAAIETLAVLAEARMDDDVLSGAQIEAVISGRDASDCEEAAGATRIKRLRDTLGNQMISALLVKNIAKRGYMLAIEKSVIQMV
- protein production: failed

From a protein production outcome set (Wang et al. 2014)
